# Assay results from patent US20240209093A1 (I MAB BIOPHARMA, published 2024).
# Changes are numbered by the printed parent chain.
# T1: His-tagged human TIGIT-ECD protein (human, UniProt Q495A1 22-141)
# T1 construct: extracellular domain; also called hTIGIT-his
# T1 sequence (looked up): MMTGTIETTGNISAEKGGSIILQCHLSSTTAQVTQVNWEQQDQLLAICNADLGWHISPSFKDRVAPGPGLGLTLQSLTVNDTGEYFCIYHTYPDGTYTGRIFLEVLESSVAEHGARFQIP
# B1: ALP-Tan-3p-93 (chimeric) (antibody, V domains shown, not shown: a dimerising Fc or GST; small tags and cut ends)
# VH: QVQLVESVGGLVQPGDSLRLSCLASGRTFTFRHYVMGWFRQAPGKEREFVAAISWSGSGSYYADSVKGRFTISRDNSKNMVFLQMNGLKPEDTAVYYCAADMTTRMSQASREYDYWGQGTQVTVSS
# notes: Called chimeric; also called ALP-Tan-3p-93 chimeric antibody
# B2: 93-VH-8 (VHH)
# VHH: EVQLVESGGGLVQPGGSLRLSCAASGRTFTFRHYVMGWFRQAPGKGLEFVAAISWSGSGSYYADSVKGRFTISRDNSKNTVYLQMNSLRAEDTAVYYCAADMTTRMSQASREYDYWGQGTLVTVSS
# notes: Humanized
# B3: 93-VH-2 (VHH)
# VHH: B2 VHH with R27F, F39V, G46E, L47R, F49W, A51S
# notes: Humanized
# B4: 93-VH-5 (VHH)
# VHH: B2 VHH with R27F, G46E, L47R, V81L, A100K
# notes: Humanized
# B5: 93-VH-9 (VHH)
# VHH: B2 VHH with V81L
# notes: Humanized
# B6: 93-VH-4 (VHH)
# VHH: B2 VHH with R27F
# notes: Humanized
# B7: 93-VH-3 (VHH)
# VHH: B2 VHH with R27F, V81L, A100K
# notes: Humanized
# B8: 93-VH-7 (VHH)
# VHH: B2 VHH with R27F, V81L
# notes: Humanized
# B9: 112-VHH5-PTM (VHH)
# VHH: EVQLVESGGGLVQPGGSLRLSCAASGSIFSSGTQFSDSKIDWYRQAPGKQRDWVAGIFSTGSTIYEDSVKGRFAISRDNAKNSLYLQMNSLRAEDTAVYYCRVIGRGILAWGQGTLVTVSS
# notes: Humanized
# B10: 112-VHH7-PTM (VHH)
# VHH: B9 VHH with D52E, V54I, S83M
# notes: Humanized
# B11: ALP-Tan-3p-112 (chimeric) (antibody, V domains shown, not shown: a dimerising Fc or GST; small tags and cut ends)
# VH: B9 VHH with E1Q, Q34N, V54I, S83M, L84G, R92K, A93P, L116Q
# notes: Called chimeric
# B12: 112-VHH3-PTM (VHH)
# VHH: B9 VHH with D52E, A55S, A74T
# notes: Humanized
# B13: TIGIT-Fc-93-VH6 (bispecific antibody, human IgG1, kappa)
# heavy: not shown
# light: DIVMTQSPSSLSASVGDRVTITCKASQDVDTAVAWYQQKPGKAPKLLIYWASARHTGVPSRFSGSGSGTDFTFTISSLQPEDIATYYCQQYSNYPLTFGQGTKLEIKRTVAAPSVFIFPPSDEQLKSGTASVVCLLNNFYPREAKVQWKVDNALQSGNSQESVTEQDSKDSTYSLSSTLTLSKADYEKHKVYACEVTHQGLSSPVTKSFNRGEC
# notes: Two 93-VH6 fused to the C-termini of the anti-TIGIT heavy chains; also called TIGIT-Fc-PD-L1 format
# B14: TIGIT-Fc-93-VH6*2 (bispecific antibody, human IgG1, kappa)
# heavy: not shown
# light: B13 light
# notes: Four 93-VH6, two in tandem at the C-terminus of each anti-TIGIT heavy chain; also called TIGIT-Fc-PD-93-VH6*2; TIGIT-Fc-PD-L1*2 format
# B15: TIGIT-CL-93-VH6 (bispecific antibody, human IgG1, kappa)
# heavy: not shown
# light: DIVMTQSPSSLSASVGDRVTITCKASQDVDTAVAWYQQKPGKAPKLLIYWASARHTGVPSRFSGSGSGTDFTFTISSLQPEDIATYYCQQYSNYPLTFGQGTKLEIKRTVAAPSVFIFPPSDEQLKSGTASVVCLLNNFYPREAKVQWKVDNALQSGNSQESVTEQDSKDSTYSLSSTLTLSKADYEKHKVYACEVTHQGLSSPVTKSFNRGECGGGGSGGGGSGGGGSGGGGSEVQLVESGGGLVQPGGSLRLSCAASGFTFTFRHYVMGWFRQAPGKEREFVAAISWSGSGSYYADSVKGRFTISRDNSKNTVYLQMNSLRAEDTAVYYCAADMTTRMSQASREYDYWGQGTLVTVSS
# notes: Two 93-VH6 fused to the C-termini of the anti-TIGIT light chains; also called TIGIT-CL-PD-L1 format
# B16: TIGIT antibody (antibody, V domains shown)
# VH: EVKLVESGGGLVQPGGSLRLSCAASGFTFSDYYMYWVRQAPGKRLEWVASITKGGGSTYYPDTLKGRFTISRDNAKNSLYLQMNRLRAEDTAVYYCARQSSYDFVMDYWGQGTTVTVSS
# VL: DIVMTQSPSSLSASVGDRVTITCKASQDVDTAVAWYQQKPGKAPKLLIYWASARHTGVPSRFSGSGSGTDFTFTISSLQPEDIATYYCQQYSNYPLTFGQGTKLEIK
# notes: Only variable domains are tied to the parental antibody; also called TIGIT Ab; parental TIGIT antibody
# B17: ALP-Tan-3p-93 (VHH)
# VHH: B1 VH
# B18: ALP-Tan-3p-112 (VHH)
# VHH: B9 VHH with E1Q, Q34N, V54I, S83M, L84G, R92K, A93P, L116Q
# B19: ASP-3P-46 (VHH)
# VHH: QVQLVESGGGLVQPGGSLRLSCAASARSINGMEWYRQAPGERRELVAGITAGGSAYYTDTVKGRFTISRDNAENTGYLQMNSLSPDDTAVYYCRRQYGPNWYWGQGTQVTVSS
# notes: also called ASP-30-46
# B20: 34C5 (antibody, V domains shown)
# VH: QVQLVQSGAEVKKPGSSVKVSCKASGYTFSSYYMHWVRQAPGQGLEWMGEINPNNARINFNEKFKTRVTLTVDKSTSTAYMELSSLRSEDTAVYYCTRGYYRYGAWFGYWGQGTLVTVSS
# VL: DIQMTQSPSSLSASVGDRVTITCRASQDISDYLNWYQQKPGKAPKLLIYYISRLHSGVPSRFSGSGSGTDYTLTISSLQPEDFATYYCQQGHTLPWTFGGGTKVEIK
# notes: also called anti-CD47 antibody 34C5; parental CD47 antibody 34C5
# B21: 13H3 (antibody, V domains shown)
# VH: EVQLVESGGGLVKPGGSLRLSCAASGLTFERAWMNWVRQAPGKGLEWVGRIKRKTDGETTDYAAPVKGRFSISRDDSKNTLYLQMNSLKTEDTAVYYCAGSNRAFDIWGQGTMVTVSS
# VL: DIVMTQSPDSLAVSLGERATINCKSSQSVLYAGNNRNYLAWYQQKPGQPPKLLINQASTRASGVPDRFSGSGSGTEFTLIISSLQAEDVAIYYCQQYYTPPLAFGGGTKLEIK
# notes: also called anti-CD47 antibody 13H3; parental CD47 antibody 13H3
# Biological target: T2, human PD-L1-his (human, UniProt Q9NZQ7 19-238)
# T2 construct: also called hPD-L1-his; human His-PD-L1
# Test: SPR, Biacore, full kinetics, antigen 100-1.5625 nM
# T2 sequence (Q9NZQ7 19-238 limits assumed): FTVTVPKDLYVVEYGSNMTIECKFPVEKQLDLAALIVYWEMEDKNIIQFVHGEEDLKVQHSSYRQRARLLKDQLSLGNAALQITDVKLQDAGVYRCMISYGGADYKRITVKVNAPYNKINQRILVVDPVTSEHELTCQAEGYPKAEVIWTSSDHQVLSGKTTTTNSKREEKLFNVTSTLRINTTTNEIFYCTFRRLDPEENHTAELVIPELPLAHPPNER
Binder,Kd [nM],koff [s⁻¹],kon [M⁻¹ s⁻¹]
B1,0.559,0.000107,192000
B2,1.8,0.000239,133000
B3,26.3,0.00162,61500
B4,2.77,0.00125,452000
B5,2.2,0.00031,140000
B6,1.82,0.000147,80500
B7,2.36,0.00115,486000
B8,3.87,0.000339,87600
B9,0.92,0.00149,1.62e+06
B10,2.32,0.00393,1.69e+06
B11,0.264,0.000566,2.14e+06
B12,2.4,0.00498,2.07e+06

# Biological target: T1, His-tagged human TIGIT-ECD protein
# Test: SPR, Biacore T200, antibody captured on protein A chip, hTIGIT-his 0.78-12.5 nM as analyte
# Source text: The antibodies were captured by Protein A chip. […] The association phase was 180 s and the dissociation phase was 1200 s.
Binder,Kd [nM],koff [s⁻¹],kon [M⁻¹ s⁻¹]
B13,0.112,0.000139,1.24e+06
B14,0.0912,0.000131,1.43e+06
B15,0.103,0.000176,1.72e+06
B16,0.144,0.000172,1.19e+06

# Biological target: T2, human PD-L1-his
# Test: ELISA, plate coated with human His-PD-L1, detection goat anti-human IgG Fc HRP [panel A]
# Source text: Binding of the anti-PD-L1/TIGIT bsAb molecules with human PD-L1 was further analyzed by ELISA.
row,Binder,EC50 (read off the curve) [nM]
1,B13,~2
2,B14,~0.8
3,B15,~1

# Biological target: T1, His-tagged human TIGIT-ECD protein
# Test: ELISA on His-tagged human TIGIT
row,Binder,EC50 (read off the curve) [nM]
1,B13,~0.5
2,B14,~0.6
3,B15,~0.5
4,B16,~0.2

# Biological target: T2, human PD-L1-his
# Test: SPR, Biacore T200
Binder,Kd [nM],koff [s⁻¹],kon [M⁻¹ s⁻¹]
B17,0.459,7.8e-05,154000
B18,0.479,0.000235,490000
B19,1.81,0.00128,710000

# Biological target: T3, Tag1-CD47 (UniProt Q08722 19-139)
# T3 construct: Bought kit reagent
# Test: HTRF CD47/SIRPα binding assay (Cisbio): blocking of Tag2-SIRPa binding to Tag1-CD47; axis numbers -3 to 3 read as log10 of nM
# Source text: Fluorescence data were read on a PerkinElmer Envision plate reader using laser as light source.
# T3 sequence (Q08722 19-139 limits assumed): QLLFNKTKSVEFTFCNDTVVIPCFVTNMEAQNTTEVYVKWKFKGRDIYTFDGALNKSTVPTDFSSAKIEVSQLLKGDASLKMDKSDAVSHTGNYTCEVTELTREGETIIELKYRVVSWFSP
row,Binder,IC50 (read off the curve) [nM]
1,B20,~0.7
2,B21,~1

# Biological target: T2, human PD-L1-his
# Test: SPR, Biacore T200, antibody captured on protein A chip, hPD-L1-his 6.25-100 nM as analyte
# Description: The binding affinity of the PD-L1/TIGIT bsAb to recombinant human his-tagged PD-L1 protein was tested by BIACORE®. […] A series of dilutions of human PD-L1 protein (6.25 nM-100 nM) were injected over captured antibody at a flow rate of 10 μL/min. The antigen was allowed to associate for 180 s and dissociate for 1200 s. All the experiments were carried out on a Biacore T200. Data analysis was carried out using Biacore T200 evaluation software.
Binder,Kd [nM],koff [s⁻¹],kon [M⁻¹ s⁻¹]
B13,1.15,4.25e-05,37100
B14,5.4,0.000118,21900
B15,3.97,0.000143,35900
